Results reported in patent publication US20240376185A1 (SMIVET B V, published 2024).
Like-named read-outs stand apart in the source and are kept apart here.

How the values were obtained:
[1] = target: T1, tetanus neurotoxin (TeNT), authentic tetanus holotoxin (Clostridium tetani, UniProt P04958 2-1315); test: GT1b-TeNT inhibition ELISA
[2] = target: T1, tetanus neurotoxin (TeNT), authentic …; test: GT1b-TeNT inhibition ELISA; remark: listed apart in the source
[3] = target: dog IgG (chrompure dog IgG) (dog)
[4] = target: dog IgG (chrompure dog IgG) (dog); remark: listed apart in the source
[5] = target: T1, tetanus neurotoxin (TeNT), authentic …; test: ELISA: directly coated TeNT, anti-his6 PO
[6] = target: T1, tetanus neurotoxin (TeNT), authentic …; test: ELISA: directly coated TeNT, anti-his6 PO; remark: listed apart in the source
[7] = target: T1, tetanus neurotoxin (TeNT), authentic …; test: ELISA: directly coated TeNT, goat anti-llama Ig PO
[8] = target: T1, tetanus neurotoxin (TeNT), authentic …; test: ELISA: directly coated TeNT, goat anti-llama Ig PO; remark: listed apart in the source
[9] = target: T1, tetanus neurotoxin (TeNT), authentic …; test: bridging ELISA: coated TeNT, SDA, biotinylated TeNT, StrepPO (bivalent binding)
[10] = target: T1, tetanus neurotoxin (TeNT), authentic …; test: as above; remark: listed apart in the source
[11] = target: T2, Horse albumin (horse, UniProt P35747 25-607); test: BLI (Octet Red96), SDA on Ni-NTA sensor, albumin as analyte
T2 construct: also called Equine albumin; Equine Alb

[12] = target: T3, Dog albumin (dog, UniProt P49822 25-608); test: as above
T3 construct: also called Canine albumin; Canine Alb

[13] = target: T4, Cat albumin (cat, UniProt P49064 25-608); test: as above
T4 construct: also called Feline albumin; Feline Alb

[14] = target: T5, Tetanus neurotoxin (TeNT), authentic tetanus holotoxin (Clostridium tetani, UniProt P04958 2-1315)
[15] = target: T5, Tetanus neurotoxin (TeNT), authentic …; test: BLI (Octet Red96), biotinylated SDA on SA sensor, TeNT as analyte
[16] = target: T6, human serum albumin (human, UniProt P02768 25-609); test: ELISA, E. coli supernatant
T6 construct: mature; also called human Alb

[17] = target: T6, human serum albumin; test: ELISA, coated albumin, E. coli supernatant
[18] = target: T1, tetanus neurotoxin (TeNT), authentic …; test: BLI (Octet Red96); avidity (bivalent for TeNT); format for this SDA not told

B1: SVG06L (VHH)
VHH: QVQLQESGGALVQPGGSLRLSCAASGFPFSAYDMTWVRQAPGQGLEWVSTIHKSGGITTYADSVKGRFTISRDNAKNTLYLQMNNLESEDTAVYYCAKALRAHNSDYVGRNALGSWGEGTLVTVSS
minimal absorbance value (GT1b-TeNT inhibition) [1]: 0.8 A450 | Effective SDA Concentration at A450 0.56 [2]: > 1000 ng/mL | maximal absorbance value [3]: 0.56 A450 | Effective SDA Concentration at A450 0.2 [4]: 164 ng/mL | maximal absorbance value [5]: 0.05 A450 | Effective SDA Concentration at A450 0.15 [6]: > 1000 ng/mL | binding result [6]: no binding (tested: 1000 ng/ml (A450 0.15 not reached)) | maximal absorbance value [7]: 0.07 A450 | Effective SDA Concentration at A450 0.15 [8]: > 1000 ng/mL | maximal absorbance value [9]: 0.14 A450 | Effective SDA Concentration at A450 0.3 [10]: > 1000 ng/mL

B2: SVA06L (VHH)
VHH: QVQLQESGGRLVQAEDSLRLSCAASGRTFVSYDMGWFRQAPGKEREFVAAINWRGYTTDYVDSVKGRFFISRDIAKSTVYLQMNNLKPEDTAVYYCAARQMSGSSRYSPPGRVGYDFWGQGTQVTVSS
Kd [11]: 13.5 nM | koff [11]: 0.00977 s⁻¹ | kon [11]: 726000 M⁻¹ s⁻¹ | Kd [12]: 3.16 nM | koff [12]: 0.00224 s⁻¹ | kon [12]: 711000 M⁻¹ s⁻¹ | Kd [13]: 1.2 nM | koff [13]: 0.000878 s⁻¹ | kon [13]: 729000 M⁻¹ s⁻¹

B3: SVT15-3FW4M-GS2-SVG13M4-H6 (bispecific antibody)
chain: QVQLQESGGGLVQTGGSLRLSCRASGRAFANYHFGWFRQAPGKDREFVASISWKGGSTYYANFALGRFTSSVDRAESSVYLQMSGLTPEDTATYYCAAHDGGDWNYHTGMDYWGQGTQVTVSSGGGGSGGGSEVQLVESGGGLVQPGGSLRLSCEASGFTFDDYGMSWVRQAPGKGLEWVSSLTPNGGSTYYADSVKGRFTISRDNAKNTLYLQMNSLKPEDTALYYCAKNSYYGAMDYWGQGTQVTVSSHHHHHH
Kd [14]: 0.0209 nM | koff [14]: 8.15e-06 s⁻¹ | kon [14]: 390000 M⁻¹ s⁻¹

B4: SVT15L (VHH)
VHH: QVQLQESGGGLVQTGGSLRLSCRASGRAFANYHFGWFRQAPGKDREFVASISWKGGSTYYANFALGRFTSSVDRAESSVYLQMSGLTPEDTATYYCAAHDGGDWNYHTGMDYWGKGILVTVSS
Kd [15]: 0.772 nM | koff [15]: 8.57e-05 s⁻¹ | kon [15]: 111000 M⁻¹ s⁻¹

B5: SVT16-L123Q-GS2-SVG13M4-H6 (bispecific antibody)
chain: QVQLQESGGGSVQAGDSLRLSCAASGRTISNYAMGWFRQAPGKQREFVAAISRSDNTYYTDSVKGRFTISRDNAKNTLYLQMNSLKPEETAVYYCAADPNLMYESKWKYRALEAWGQGTQVTVSSGGGGSGGGSEVQLVESGGGLVQPGGSLRLSCEASGFTFDDYGMSWVRQAPGKGLEWVSSLTPNGGSTYYADSVKGRFTISRDNAKNTLYLQMNSLKPEDTALYYCAKNSYYGAMDYWGQGTQVTVSSHHHHHH
maximal absorbance value [3]: 0.69 A450 | Effective SDA Concentration at A450 0.2 [4]: 127 ng/mL

B6: SVA04 (VHH, not shown: large carriers)
VHH: QVQLQQSGGGLVQAGGSLRLACAASGRTLSSYVMGWFRQAPGKEREFVAAISWSGGSTYYADSVKGRFTISRDNAKNTVYLQMNSLKPEDTAVYYCAATLRGSNRYYSGRVYDYWGQGTQVTVSS
binding result [16]: no binding | absorbance at 450 nm [17]: 0.085 A450

B7: SVT06-SVT16-L123Q-GS2-SVG13M4-H6 (bispecific antibody)
chain: QVQLQESGGGSVQAGGSLRLSCTASELSYDDYTIAWFRRAAGEGRVEDGEGVASITKSYDRAYDNKINYGHSVKGRFTISRDNAKNTVYLQMTDLLPSDTAVYYCALDITPPGGVGASLTEGFLFDYWGQGTQVTVSSQVQLQESGGGSVQAGDSLRLSCAASGRTISNYAMGWFRQAPGKQREFVAAISRSDNTYYTDSVKGRFTISRDNAKNTLYLQMNSLKPEETAVYYCAADPNLMYESKWKYRALEAWGQGTQVTVSSGGGGSGGGSEVQLVESGGGLVQPGGSLRLSCEASGFTFDDYGMSWVRQAPGKGLEWVSSLTPNGGSTYYADSVKGRFTISRDNAKNTLYLQMNSLKPEDTALYYCAKNSYYGAMDYWGQGTQVTVSSHHHHHH
notes: also called pRL501
maximal absorbance value [3]: 0.78 A450 | Effective SDA Concentration at A450 0.2 [4]: 134 ng/mL

B8: SVT06L (VHH)
VHH: QVQLQESGGGSVQAGGSLRLSCTASELSYDDYTIAWFRRAAGEGRVEDGEGVASITKSYDRAYDNKINYGHSVKGRFTISRDNAKNTVYLQMTDLLPSDTAVYYCALDITPPGGVGASLTEGFLFDYWGQGTQVTVSS
Kd [15]: 0.224 nM | koff [15]: 0.000113 s⁻¹ | kon [15]: 503000 M⁻¹ s⁻¹

B9: SVT06-GS3-SVT02-GS2-SVG06M4-H6 (bispecific antibody)
chain: QVQLQESGGGSVQAGGSLRLSCTASELSYDDYTIAWFRRAAGEGRVEDGEGVASITKSYDRAYDNKINYGHSVKGRFTISRDNAKNTVYLQMTDLLPSDTAVYYCALDITPPGGVGASLTEGFLFDYWGQGTQVTVSSGGGGSGGGGSGGGGSQVQLQQSGGGSVQAGGSLRLSCVGPQRTFSTYGMGWFRQAPGKEREFVAGINYKGDTTYYADSVKGRFTISRDNAKNTLYLQMDSLKPEDRAVYQCARKGGLGGDYRDAGQYRYWGQGTQVTVSSGGGGSGGGSEVQLVESGGALVQPGGSLRLSCAASGFPFSAYDMTWVRQAPGQGLEWVSTIHKSGGITTYADSVKGRFTISRDNAKNTLYLQMNNLESEDTAVYYCAKALRAHNSDYVGRNALGSWGQGTQVTVSSHHHHHH
Kd [18]: 0.13 nM | koff [18]: 4.27e-05 s⁻¹ | kon [18]: 329000 M⁻¹ s⁻¹
